Assay results from US6492139 (Genentech, dated 2002).

Experiments:
[1] = biological target: T1, dSmo (Drosophila Smoothened, epitope tagged) (Drosophila, UniProt P91682 32-1036); assay: staining of transfected cells exposed to tagged ligand
T1 construct: also called dro.smo
T1 sequence: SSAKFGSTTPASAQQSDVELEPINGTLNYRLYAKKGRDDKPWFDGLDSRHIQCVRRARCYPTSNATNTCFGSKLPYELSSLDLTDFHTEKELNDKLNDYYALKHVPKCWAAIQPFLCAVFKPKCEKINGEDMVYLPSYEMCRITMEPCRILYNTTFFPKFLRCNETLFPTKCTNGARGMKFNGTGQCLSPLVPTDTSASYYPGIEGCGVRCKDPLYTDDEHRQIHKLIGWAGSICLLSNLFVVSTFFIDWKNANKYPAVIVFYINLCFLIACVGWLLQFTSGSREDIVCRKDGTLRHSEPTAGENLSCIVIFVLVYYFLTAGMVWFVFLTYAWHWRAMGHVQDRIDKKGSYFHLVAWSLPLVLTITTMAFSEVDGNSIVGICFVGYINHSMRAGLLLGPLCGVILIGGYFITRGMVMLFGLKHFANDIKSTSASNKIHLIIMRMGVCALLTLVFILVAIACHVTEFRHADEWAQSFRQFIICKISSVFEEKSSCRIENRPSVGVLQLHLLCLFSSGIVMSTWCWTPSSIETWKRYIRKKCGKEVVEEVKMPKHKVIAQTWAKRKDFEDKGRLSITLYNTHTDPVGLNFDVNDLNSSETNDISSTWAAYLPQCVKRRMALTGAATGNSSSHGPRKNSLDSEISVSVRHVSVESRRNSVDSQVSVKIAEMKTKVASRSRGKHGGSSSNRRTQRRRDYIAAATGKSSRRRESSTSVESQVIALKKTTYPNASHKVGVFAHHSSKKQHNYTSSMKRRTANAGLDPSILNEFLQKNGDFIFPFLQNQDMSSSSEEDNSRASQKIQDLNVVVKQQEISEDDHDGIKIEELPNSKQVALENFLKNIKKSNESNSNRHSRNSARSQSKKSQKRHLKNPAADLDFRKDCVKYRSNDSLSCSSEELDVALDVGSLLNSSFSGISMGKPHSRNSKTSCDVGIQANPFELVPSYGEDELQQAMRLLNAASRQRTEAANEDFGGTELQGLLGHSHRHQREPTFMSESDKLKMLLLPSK

[2] = biological target: T2, Flag tagged rSmo (rat Smoothened with C-terminal Flag epitope tag) (rat, UniProt P97698 33-793); assay: as above
T2 construct: Expressed transiently in COS-7 or 293 cells from pRK5
T2 sequence (P97698 33-793): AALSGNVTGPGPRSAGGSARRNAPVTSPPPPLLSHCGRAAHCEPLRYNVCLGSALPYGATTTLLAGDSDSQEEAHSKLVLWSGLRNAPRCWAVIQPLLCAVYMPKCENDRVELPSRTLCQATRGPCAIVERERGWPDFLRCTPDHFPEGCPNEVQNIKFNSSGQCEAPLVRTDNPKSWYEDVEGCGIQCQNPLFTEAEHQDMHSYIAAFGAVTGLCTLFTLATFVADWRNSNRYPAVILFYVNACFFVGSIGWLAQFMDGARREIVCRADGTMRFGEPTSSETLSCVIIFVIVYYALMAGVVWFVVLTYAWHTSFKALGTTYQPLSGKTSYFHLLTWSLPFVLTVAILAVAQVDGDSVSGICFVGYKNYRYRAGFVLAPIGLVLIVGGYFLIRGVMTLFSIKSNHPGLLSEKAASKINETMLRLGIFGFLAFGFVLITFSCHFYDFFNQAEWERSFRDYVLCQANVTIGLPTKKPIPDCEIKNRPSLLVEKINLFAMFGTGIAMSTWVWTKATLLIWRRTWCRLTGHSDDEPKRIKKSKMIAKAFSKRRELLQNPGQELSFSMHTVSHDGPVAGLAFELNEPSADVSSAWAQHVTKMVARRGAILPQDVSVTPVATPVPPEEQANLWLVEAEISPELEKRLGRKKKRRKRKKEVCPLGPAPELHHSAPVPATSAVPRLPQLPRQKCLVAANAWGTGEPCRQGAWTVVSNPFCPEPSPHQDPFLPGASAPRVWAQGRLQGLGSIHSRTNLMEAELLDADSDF

binding result [1]: no binding
binding result [2]: no binding
B1: epitope tagged Desert HH (ligand, not shown: small tags and cut ends)
chain: not shown
